US20170368132A1 (published 2017)
Changes are numbered by the printed parent chain. In names and notes the source's numbering stands. Non-standard residues stand in square brackets, D forms with d. Groups on a side chain read outwards from the residue. *: point of attachment. 5FAM = O=C1OC2(c3ccc(O)cc3Oc3cc(O)ccc32)c2ccc(C(=O)*)cc21

T1: H. sapiens Rad51 (H. sapiens, UniProt Q06609 1-339)
T1 construct: Expressed in yeast as a two-hybrid fusion; also called human RAD51
T1 sequence: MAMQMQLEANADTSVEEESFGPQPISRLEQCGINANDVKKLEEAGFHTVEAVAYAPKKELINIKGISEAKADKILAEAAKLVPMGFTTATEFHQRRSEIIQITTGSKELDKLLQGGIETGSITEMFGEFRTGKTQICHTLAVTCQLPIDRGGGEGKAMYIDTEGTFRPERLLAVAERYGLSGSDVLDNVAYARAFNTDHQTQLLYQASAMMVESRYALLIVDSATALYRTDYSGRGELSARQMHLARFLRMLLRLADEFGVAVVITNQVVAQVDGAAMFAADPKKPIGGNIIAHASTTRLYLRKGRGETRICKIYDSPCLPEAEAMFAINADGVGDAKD

T2: Rad51, fluorescently labelled (microscale thermophoresis) (UniProt Q06609 1-339, limits assumed, fluorescently labelled according to the manufacturer's protocol (site not stated))
T2 construct: Purified labelled protein at about 500 nM; The buffer contained 0.5 mM ATP and 2.5 uM ssDNA
T2 sequence (looked up): T1 sequence

B1: Rad51 (S208E; A209D) (enzyme)
chain: T1 sequence with S208E, A209D
notes: Human RAD51 mutant tested by Y2H; also called human RAD51 S208E A209D
B2: Rad51 (Q202R, Y205D, Q206A) (enzyme)
chain: T1 sequence with Q202R, Y205D, Q206A
notes: Human RAD51 mutant tested by Y2H; also called human RAD51 Q202R Y205D Q206A
B3: Rad51 (A190L; A192L) (enzyme)
chain: T1 sequence with A190L, A192L
notes: Human RAD51 mutant tested by Y2H; also called human RAD51 A190L A192L
B4: Rad51 (S208L; A209E; M210A) (enzyme)
chain: T1 sequence with S208L, A209E, M210A
notes: Human RAD51 mutant tested by Y2H; also called human RAD51 S208L A209E M210A
B5: Rad51 (F86E; A89E) (enzyme)
chain: T1 sequence with F86E, A89E
notes: Human RAD51 mutant tested by Y2H; also called human RAD51 F86E A89E

What was measured:
H. sapiens Rad51 = target: T1, H. sapiens Rad51; test: yeast two-hybrid, human RAD51 mutant
Protocol: (§1) The ability of peptides to bind human RAD51 with various mutations was then tested by Y2H assay. […] While mutations affecting BRCA2 binding had no effect on peptide binding, mutations that affected RAD51-AP1 binding did disrupt peptide binding. As these mutations were at residues 202, 205, and 206, they were consistent with the previous fusion data showing binding somewhere in the 190-218 region, and indicated the peptide SEQ ID NO.:5 contacts at least residues 202, 205, and 206 of RAD51.

Rad51 (F86E; A89E) = target: B5; test: yeast two-hybrid, human RAD51 mutant
Protocol: as §1

Rad51 (A190L; A192L) = target: B3; test: yeast two-hybrid, human RAD51 mutant
Protocol: as §1

[1] = target: B4; test: yeast two-hybrid, human RAD51 mutant
Protocol: as §1

Rad51 (S208E; A209D) = target: B1; test: yeast two-hybrid, human RAD51 mutant
Protocol: as §1

[2] = target: B2; test: yeast two-hybrid, human RAD51 mutant
Protocol: as §1

[3] = target: T2, Rad51, fluorescently labelled …; test: microscale thermophoresis, 1 mM Ca2+ against no Ca2+
Protocol: (§2) Microscale thermophoresis was performed as previously described (see, for e.g. Jerabek-Willemsen, M., Wienken, C. J., Braun, D., Baaske, P. & Duhr, S. Molecular interaction studies using microscale thermophoresis. Assay Drug Dev. Technol. 9, 342-353 (2011)). The affinity of the Compound was measured using the Monolith NT.115 from Nanotemper Technologies. Rad51 was fluorescently labelled according to the manufacturer's protocol and the labelled protein used for each assay was about 500 nM. A solution of unlabelled peptide was diluted for appropriate serial concentration gradient. The samples were loaded into silica capillaries (Polymicro Technologies). Measurements were performed at room temperature in buffer containing PBS, 0.1% Tween 20, 0.5 mM ATP, 2.5 uM ssDNA, with 1 mM CaCl2 (when mentioned). Measurements were done using 12% LED power and 60% MST power. The assays were repeated three times for each affinity measurement. Data analyses were performed using Nanotemper Analysis software and OriginPro 8.0 software provided by the manufacturer.

[4] = target: T2, Rad51, fluorescently labelled …; test: microscale thermophoresis, labelled Rad51 about 500 nM, PBS
Protocol: as §2

[5] = target: T2, Rad51, fluorescently labelled …; test: microscale thermophoresis, labelled Rad51 about 500 nM, PBS + 1 mM Ca2+
Protocol: as §2

B1: binds (H. sapiens Rad51).

B2: binds (H. sapiens Rad51).

B3: no binding (H. sapiens Rad51).

B4: no binding (H. sapiens Rad51).

B5: no binding (H. sapiens Rad51).

KEPTLLGFHTASGKKVKIAKESLDKVKNLFDEKEQ (Y2H fusion in yeast) [residues 1517-1551 of human BRCA2 used as Y2H bait]: binds (Rad51 (F86E; A89E)); no binding (Rad51 (A190L; A192L)); no binding [1]. KEPTLLGFHTASGKKVKIAKESLDKVKNLFDEKEQ (Y2H fusion in yeast) [residues 1517-1551 of human BRCA2 used as Y2H bait]: no binding (Rad51 (S208E; A209D)); binds [2].

Ac-K([C6-5FAM])RRRRRRRKRLGVRLRVSRML-NH2 (also called active peptide 5) [Compound 5, Ac-K(C6_5FAM)-RRRRRRRKRLGVRLRVSRML-NH2] was tested, and the “fold increase of Kd (calcium raised from 0 to 1 mM)” value [3] was 3.4 fold, the Kd [4] was 8.37 nM and the Kd [5] was 28.9 nM.

Work on Ac-[dL][dM][dR][dS][dV][dR][dL][dR][dV]G[dL][dR][dK][dR][dR][dR][dR][dR][dR][dR]-NH2 [Compound 10, Ac-lmrsvrlrvGlrkrrrrrrr-NH2] yielded a Kd [4] of 8.55 nM.
